Laboratory results reported in patent US20190216947A1.

Columns and labels:
Mouse CD47 (mouse) = Mouse CD47 (mouse) (UniProt Q61735); test: SPR
Human CD47 (human) = Human CD47 (human) (UniProt Q08722); test: SPR
Sequence of Human CD47 (human) (Q08722 19-139 limits assumed): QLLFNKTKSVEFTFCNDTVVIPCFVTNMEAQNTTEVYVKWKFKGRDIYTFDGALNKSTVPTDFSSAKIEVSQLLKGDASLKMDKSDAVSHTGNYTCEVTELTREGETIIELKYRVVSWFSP

Sequence of Mouse CD47 (mouse) (Q61735 19-140 limits assumed): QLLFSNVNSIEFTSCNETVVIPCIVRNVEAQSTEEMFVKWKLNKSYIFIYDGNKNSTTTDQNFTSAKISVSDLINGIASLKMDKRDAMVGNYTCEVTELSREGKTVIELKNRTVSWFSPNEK

monomeric SIRPα (mSIRPα) (receptor) was tested, and the Kd (Mouse CD47 (mouse)) was 6.2 nM, the koff (Mouse CD47 (mouse)) was 0.011 s⁻¹ and the kon (Mouse CD47 (mouse)) was 1.8e+06 M⁻¹ s⁻¹. It also gave a Kd (Human CD47 (human)) of 0.0054 nM, a koff (Human CD47 (human)) of 3.7e-05 s⁻¹ and a kon (Human CD47 (human)) of 7e+06 M⁻¹ s⁻¹.
